Molecular target: biotinylated Apaf-1 CARD-LZ-Avi (UniProt O14727 1-137, biotin on the AviTag (BirA))
Assay: SPR

biotinylated Apaf-1 CARD-LZ-Avi, sequence (O14727 other isoform, or with tags, fused parts or gaps): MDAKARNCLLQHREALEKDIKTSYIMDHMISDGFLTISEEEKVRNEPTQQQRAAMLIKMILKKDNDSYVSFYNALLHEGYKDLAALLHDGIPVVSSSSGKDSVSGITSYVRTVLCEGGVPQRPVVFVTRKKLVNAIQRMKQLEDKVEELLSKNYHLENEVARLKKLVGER

- Kd: 125 nM
B1: processed C9/8 chimera (enzyme)
chain 1: MDEADRRLLRRCRLRLVEELQVDQLWDALLSRELFRPHMIEDIQRAGSGSRRDQARQLIIDLETRGSQALPLFISCLEDTGQDMLASFLRTNRQAAKLSKPTLENLTPVVLRPEIRKPEVLRPETPRPVDIGSGGFGSESQTLDKVYQMKSKPRGYCLIINNHNFAKAREKVPKLHSIRDRNGTHLDAGALTTTFEELHFEIKPHDDCTVEQIYEILKIYQLMDHSNMDCFICCILSHGDKGIIYGTDGQEAPIYELTSQFTGLKCPSLAGKPKVFFIQACQGDNYQKGIPVETD
chain 2: LSSPQTRYIPDEADFLLGMATVNNCVSYRNPAEGTWYIQSLCQSLRERCPRGDDILTILTEVNYEVSNKDDKKNMGKQMPQPTFTLRKKLVFPSD

Reference: paper PMC5123071 (2016)
